Numbering of substitutions follows the chain as printed.
Experiments:
[1] = target: T1, Fc-fusion cyno BCMA (in-house; Cat# BCMW6.001) (cyno, UniProt Q02223 1-54 (human entry)); assay: SPR, Fc-BCMA, two-state model, step 1 (kon1); first step (kon1)
T1 construct: also called Fc-BCMA Cy; cyno Fc-BCMA; not shown: Fc part

[2] = target: T1, Fc-fusion cyno BCMA (in-house; Cat# …); assay: SPR, Fc-BCMA, two-state model, Final KD; Final complex KD, two-state model
[3] = target: T1, Fc-fusion cyno BCMA (in-house; Cat# …); assay: SPR (Biacore T200), biotinylated Fc-BCMA Cyno on a streptavidin chip, BCMB72 as analyte, two-state binding model, Final Complex; column RANGE prints 5.36 - 7.27
Procedure: (§1) The binding affinities of anti-BCMA×CD3 bispecific antibody (BCMB72) with Fc-fusion BCMA proteins (human, cyno and mouse) were measured by Surface Plasmon Resonance (SPR) using a Biacore T200 system (GE Healthcare, NJ).
(§2) No protein was immobilized on flow-cell 1 and was used as a reference surface. Binding kinetics experiments were performed at 25° C. in running buffer (PBS pH 7.4, 0.005% P20, 3 mM EDTA). BCMB72 was prepared in running buffer starting from 100 nM to 0.16 nM at 5-fold dilutions. These solutions were injected for 5 min (association phase) at 50 μL/min and the dissociation was monitored for 15 min by flowing running buffer. The chip surface was regenerated by short injections of glycine (pH 1.5) and running buffer at 100 μL/min. Binding kinetics analysis of BCMB72 interactions with Fc-BCMA was performed by double referencing of the data by subtracting the curves generated by buffer injection from the reference-subtracted curves for analyte injections. Global kinetics fitting of the sensorgrams was performed using a Two-State binding Model using Biacore T200 Evaluation Software (GE Healthcare, NJ). The binding affinity results from the Two-State binding model for different BCMA species are reported as First Complex (KD1) and Final Complex (KD) (FIG. 5).

[4] = target: T2, Recombinant mouse BCMA-Fc fusion protein (R&D Systems catalog #593-BC-050) (mouse, UniProt O88472 1-49); assay: SPR (Biacore T200), biotinylated Fc-BCMA Mouse on a streptavidin chip, BCMB72 as analyte, two-state binding model, Final Complex; column RANGE prints 62.0 - 82.9
T2 construct: also called mBCMA-Fc; Fc-fusion mouse BCMA; not shown: Fc part of the bought fusion protein
T2 chain: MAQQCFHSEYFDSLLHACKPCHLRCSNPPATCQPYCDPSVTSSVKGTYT
Procedure: as §1, §2

[5] = target: T2, Recombinant mouse BCMA-Fc fusion …; assay: SPR (Biacore T200), biotinylated Fc-BCMA on streptavidin chip
Procedure: as §1, §2

[6] = target: T1, Fc-fusion cyno BCMA (in-house; Cat# …); assay: as above
Procedure: as §1, §2

[7] = target: T1, Fc-fusion cyno BCMA (in-house; Cat# …); assay: SPR, Fc-BCMA, two-state model, step 2
[8] = target: T3, Soluble human BCMA ECD (AB Biosciences, Catalog no. P011Xp) (human, UniProt Q02223 1-54); assay: cell-based or functional assay
T3 sequence: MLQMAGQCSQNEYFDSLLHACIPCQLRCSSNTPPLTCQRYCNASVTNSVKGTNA

[9] = target: T1, Fc-fusion cyno BCMA (in-house; Cat# …); assay: SPR, Fc-BCMA, two-state model, first complex
[10] = target: T1, Fc-fusion cyno BCMA (in-house; Cat# …); assay: SPR, Fc-BCMA, two-state model, step 1 (koff1); first step (koff1)
[11] = target: T1, Fc-fusion cyno BCMA (in-house; Cat# …); assay: SPR, cyno Fc-BCMA
[12] = target: T4, Recombinant human BCMA-Fc fusion protein (R&D Systems catalog #193-BC-050) (human, UniProt Q02223 1-54); assay: SPR, Fc-BCMA, two-state model, step 1 (kon1); first step (kon1)
T4 construct: also called hBCMA-Fc; Fc-BCMA Hu; not shown: Fc part of the bought fusion protein
T4 sequence: T3 sequence

[13] = target: T4, Recombinant human BCMA-Fc fusion …; assay: SPR, Fc-BCMA, two-state model, Final KD; Final complex KD, two-state model
[14] = target: T4, Recombinant human BCMA-Fc fusion …; assay: SPR, Fc-BCMA, two-state model, step 2
[15] = target: T4, Recombinant human BCMA-Fc fusion …; assay: SPR, Fc-BCMA, two-state model, first complex
[16] = target: T4, Recombinant human BCMA-Fc fusion …; assay: SPR, Fc-BCMA, two-state model, step 1 (koff1); first step (koff1)
[17] = target: T4, Recombinant human BCMA-Fc fusion …; assay: SPR, human Fc-BCMA
cyno BCMA on HEK cells = target: T5, cyno BCMA on HEK cells (cyno, UniProt Q02223 1-184 (human entry)); assay: flow cytometry, HEK cells expressing cyno BCMA
T5 construct: also called HEK-expressing cyno BCMA
T5 sequence (Q02223 other isoform, or with tags, fused parts or gaps): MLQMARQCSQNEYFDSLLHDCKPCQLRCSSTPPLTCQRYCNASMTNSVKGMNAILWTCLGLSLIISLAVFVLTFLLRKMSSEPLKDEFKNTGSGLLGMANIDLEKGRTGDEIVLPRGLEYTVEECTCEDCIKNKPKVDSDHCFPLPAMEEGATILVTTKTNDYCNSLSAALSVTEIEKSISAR

B1: BCMB72 (BCMA×CD3 bispecific antibody, BCMB69 × CD3B219) (bispecific antibody, human IgG4 S228P, lambda, F234A L235A)
heavy 1: EVQLVESGGGLVQPGGSLRLSCAASGFTFNTYAMNWVRQAPGKGLEWVARIRSKYNNYATYYAASVKGRFTISRDDSKNSLYLQMNSLKTEDTAVYYCARHGNFGNSYVSWFAYWGQGTLVTVSSASTKGPSVFPLAPCSRSTSESTAALGCLVKDYFPEPVTVSWNSGALTSGVHTFPAVLQSSGLYSLSSVVTVPSSSLGTKTYTCNVDHKPSNTKVDKRVESKYGPPCPPCPAPEAAGGPSVFLFPPKPKDTLMISRTPEVTCVVVDVSQEDPEVQFNWYVDGVEVHNAKTKPREEQFNSTYRVVSVLTVLHQDWLNGKEYKCKVSNKGLPSSIEKTISKAKGQPREPQVYTLPPSQEEMTKNQVSLTCLVKGFYPSDIAVEWESNGQPENNYKTTPPVLDSDGSFLLYSKLTVDKSRWQEGNVFSCSVMHEALHNHYTQKSLSLSLGK
light 1: QTVVTQEPSLTVSPGGTVTLTCRSSTGAVTTSNYANWVQQKPGQAPRGLIGGTNKRAPGTPARFSGSLLGGKAALTLSGVQPEDEAEYYCALWYSNLWVFGGGTKLTVLGQPKAAPSVTLFPPSSEELQANKATLVCLISDFYPGAVTVAWKADSSPVKAGVETTTPSKQSNNKYAASSYLSLTPEQWKSHRSYSCQVTHEGSTVEKTVAPTECS
heavy 2: not shown
light 2: SYVLTQPPSVSVAPGQTARITCGGNNIGSKSVHWYQQPPGQAPVVVVYDDSDRPSGIPERFSGSNSGNTATLTISRVEAGDEAVYYCQVWDSSSDHVVFGGGTKLTVLGQPKAAPSVTLFPPSSEELQANKATLVCLISDFYPGAVTVAWKGDSSPVKAGVETTTPSKQSNNKYAASSYLSLTPEQWKSHRSYSCQVTHEGSTVEKTVAPTECS
notes: IgG4 made by Fab arm exchange; first heavy/light pair is the CD3B219 arm, second pair the BCMB69 arm; also called B69 × B219; BCMB72.004
kon [1]: 1.26e+06 M⁻¹ s⁻¹ | Kd [2]: 1.65 nM | Kd [3]: 6.5 nM | Kd [4]: 72.4 nM | fold of average KD compared to human BCMA [5]: ~402 fold | fold of average KD compared to human BCMA [6]: ~36 fold | koff2 [7]: 0.000785 s⁻¹ | kon2 [7]: 0.00106 s⁻¹ | Change of EC50 of cytotoxicity on H929 cells in the presence of soluble BCMA ECD [8]: 2 fold | KD1 [9]: 3.87 nM | koff [10]: 0.00483 s⁻¹

B2: BC3B7 (BCMA×CD3 bispecific antibody, BCMB117 × CD3B219) (bispecific antibody, human IgG4 S228P, lambda, F234A L235A)
heavy 1: B1 heavy 1
light 1: B1 light 1
heavy 2: not shown
light 2: B1 light 2 with G152A
notes: also called BC3BY; B117 × B219
kon [1]: 1.38e+06 M⁻¹ s⁻¹ | Kd [2]: 0.65 nM | koff2 [7]: 0.000415 s⁻¹ | kon2 [7]: 0.0015 s⁻¹ | fold tighter affinity than BCMB72 [11]: 2 fold | KD1 [9]: 3.04 nM | koff [10]: 0.00417 s⁻¹

B3: BC3B9 (BCMA×CD3 bispecific antibody, BCMB128 × CD3B219) (bispecific antibody, human IgG4 S228P, lambda, F234A L235A)
heavy 1: B1 heavy 1
light 1: B1 light 1
heavy 2: not shown
light 2: B1 light 2 with G152A
notes: IgG4 made by Fab arm exchange; also called B128 × B219
kon [1]: 2.18e+06 M⁻¹ s⁻¹ | kon [12]: 2.58e+06 M⁻¹ s⁻¹ | Kd [2]: 0.37 nM | Kd [13]: 0.05 nM | koff2 [7]: 0.000376 s⁻¹ | kon2 [7]: 0.0016 s⁻¹ | koff2 [14]: 0.000364 s⁻¹ | kon2 [14]: 0.00506 s⁻¹ | fold tighter affinity than BCMB72 [11]: 3 fold | KD1 [9]: 1.94 nM | KD1 [15]: 0.79 nM | koff [10]: 0.00423 s⁻¹ | koff [16]: 0.00205 s⁻¹

B4: BC3B12 (BCMA×CD3 bispecific antibody, BCMB177 × CD3B219) (bispecific antibody, human IgG4 S228P, lambda, F234A L235A)
heavy 1: B1 heavy 1
light 1: B1 light 1
heavy 2: not shown
light 2: B1 light 2 with G152A
notes: IgG4 made by Fab arm exchange; also called B177 × B219
kon [1]: 1.48e+06 M⁻¹ s⁻¹ | kon [12]: 1.78e+06 M⁻¹ s⁻¹ | Kd [2]: 1.06 nM | Kd [13]: 0.22 nM | koff2 [7]: 0.000337 s⁻¹ | kon2 [7]: 0.00146 s⁻¹ | koff2 [14]: 0.000557 s⁻¹ | kon2 [14]: 0.00129 s⁻¹ | fold weaker affinity than BCMB72 [17]: 2 to 3 fold | KD1 [9]: 5.65 nM | KD1 [15]: 0.72 nM | koff [10]: 0.00831 s⁻¹ | koff [16]: 0.00129 s⁻¹

B5: BCMB69 (antibody, V domains shown)
VH: QLQLQESGPGLVKPSETLSLTCTVSGGSISSGSYFWGWIRQPPGKGLEWIGSIYYSGITYYNPSLKSRVTISVDTSKNQFSLKLSSVTAADTAVYYCARHDGAVAGLFDYWGQGTLVTVSS
VL: SYVLTQPPSVSVAPGQTARITCGGNNIGSKSVHWYQQPPGQAPVVVVYDDSDRPSGIPERFSGSNSGNTATLTISRVEAGDEAVYYCQVWDSSSDHVVFGGGTKLTVLG
notes: also called BCBM69; antibody derived from the M2 hybridoma
binding result (cyno BCMA on HEK cells): binds
